Here are results for two molecules from publication PMC10960022, “An ARF gene mutation creates flint kernel architecture in dent maize”.

The target in data set [1] is T1, ARFTF17 (Zea mays (B73?)) (UniProt D9HNU4).
T1 sequence: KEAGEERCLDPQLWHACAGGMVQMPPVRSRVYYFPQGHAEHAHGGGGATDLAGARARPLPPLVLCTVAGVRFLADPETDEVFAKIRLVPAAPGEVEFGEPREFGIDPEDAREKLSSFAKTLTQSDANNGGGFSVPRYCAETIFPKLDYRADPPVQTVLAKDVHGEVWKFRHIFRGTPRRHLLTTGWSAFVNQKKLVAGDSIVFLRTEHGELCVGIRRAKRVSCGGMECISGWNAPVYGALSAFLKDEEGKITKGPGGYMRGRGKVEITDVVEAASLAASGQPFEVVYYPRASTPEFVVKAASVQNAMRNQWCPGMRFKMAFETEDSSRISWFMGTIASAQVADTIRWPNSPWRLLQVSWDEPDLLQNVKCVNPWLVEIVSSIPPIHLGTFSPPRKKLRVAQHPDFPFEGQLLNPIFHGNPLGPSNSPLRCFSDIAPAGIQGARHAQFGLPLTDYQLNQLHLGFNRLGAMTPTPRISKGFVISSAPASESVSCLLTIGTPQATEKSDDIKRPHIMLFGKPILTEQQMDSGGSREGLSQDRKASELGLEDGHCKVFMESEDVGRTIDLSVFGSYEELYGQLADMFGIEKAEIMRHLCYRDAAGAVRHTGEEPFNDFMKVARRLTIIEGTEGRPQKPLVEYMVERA
Description: EMSA. To be noted: 20 mM Tris-HCl pH 7.9, 40 mM KCl, 2 mM MgCl2, 0.2 mM DTT, 5% glycerol, 0.04 mg/mL BSA, 1 ug salmon sperm DNA in 20 uL, room temperature 30 min; 0.05 pmol …. For orientation: Mobility shift assays separate free from complexed probe on a gel.

Data set [2] deals with T2, ARFTF17 (Zea mays, UniProt D9HNU4 2-644).
T2 sequence: T1 sequence
The data set can be described thus: EMSA; 20 mM Tris-HCl pH 7.9, 40 mM KCl, 2 mM MgCl2, 0.2 mM DTT, 5% glycerol, 0.04 mg/mL BSA, 1 ug salmon sperm DNA in 20 uL, room temperature 30 min; 0.05 pmol probe, 100 ng protein; native 4% PAGE at 4 C. To be noted: protein: recombinant; tags: His (pET30a); chain copies: 2; blunt.

As for “AATGCACAATCAAATAAATACTCAACATGATGCATATTTCTATTTATATATTTTTATAGTAATTGTTTAATCCTTTTGGTTAAATAACATGCTTCGAAATATGCCATACAACAATTTTCAGTTTTGAAGAAAT (double strand) [PIN1-P]”, the binding result in data set [1] was “no binding”.

B1: P3(2x) (dsDNA)
DNA 1: AAGGGAGACAACTTGTCTCCCAAAGGGAGACAACTTGTCTCCCAAAGGGAGACAACTTGTCTCCCA
DNA 2: TGGGAGACAAGTTGTCTCCCTTTGGGAGACAAGTTGTCTCCCTTTGGGAGACAAGTTGTCTCCCTT
For B1, the binding result in data set [2] is given as “no binding”.
